In the supplement of paper PMC10567573:
± gives the standard deviation.

Assay: protein stability index of a GFP-peptide fusion (GPS, HEK-293T) (PSI 1-6); higher = more stable
Details: c terminus: a fixed tail appended
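Further: 24-mer peptide tiles fused after GFP, lentivirally expressed, FACS-sorted into six equal bins by GFP/DsRed ratio, decoded by Illumina sequencing, PSI is the read-weighted mean bin number.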

Sequence	protein stability index (treatment: DMSO)	protein stability index (treatment: MLN4924 1 uM, 8 h)
DINLNSPNKGLLSDSMTDVPVDTG [TPD52L2]	4.19 ± 0.2	4.51 ± 0.22
DITEGDRKPDYTAYVAMIPQCIKE [ATF4]	3.28 ± 0.27	3.38 ± 0.37
DKALMIAMEYAPGGTLAEFIQKRC [NEK8]	2.39 ± 0.26	2.54 ± 0.17
DKDVRLLVACCLADIFRIYAPEAP [PDS5B]	3.08 ± 0.48	3.02 ± 0.08
DKLYHPECFMCSDCGLNLKQRGYF [PDLIM4]	2.22 ± 0.18	2.23 ± 0.33
DKRHVEQKIQFKRETASLKLLPHQ [PDZK1]	3.85 ± 0.31	3.8 ± 0.24
DLCPPIGRRAATALLWLSCSIALL [GNAS]	2.59 ± 0.63	2.19 ± 0.28
DNLRKVVPCYSKTQKLSKIETLRL [NEUROD6]	2.81 ± 0.17	2.8 ± 0.32
DNSLSSQNYISQKEDASEFQILKY [MIA2]	3.94 ± 0.27	3.74 ± 0.6
DPNINPTIGASFMTKTVQYQNELH [RAB22A]	4.29 ± 0.31	4.19 ± 0.23
DPPLSQDERTHRSDRPFKCNQCGK [ZNF8]	5.01 ± 0.24	5.11 ± 0.14
DPTGASIALFTARLHHPHKSVQHV [PTPN9]	2.37 ± 0.29	2.64 ± 0.23
DQCKINKQIYNLIHLDPRTREGFT [FEM1B]	2.2 ± 0.35	2.52 ± 0.38
DRDAEDQNRYLDGMVRAHGVRVSV [BET1L]	3.85 ± 0.22	3.87 ± 0.29
DRISTTFRLTTLLMSGCSSELKNR [PLK2]	2.19 ± 0.46	2.43 ± 0.18
DRNVVTIFSAPNYCYRCGNQAAIM [PPP2CA]	2.7 ± 0.79	2.11 ± 0.23
DSCCPAGIFQAMCLLICAEMYQVS [RHOBTB3]	3.07 ± 0.12	3.02 ± 0.31
DSKHVVLPVDDDSDLNVVASFDRR [RBBP5]	4.73 ± 0.39	5.21 ± 0.23

Sequence	protein stability index (treatment: DMSO)	protein stability index (treatment: MLN4924 1 uM, 8 h)
DSQVSEEVKTRHSEKSQREDEEEE [CHGB]	5.75 ± 0.099	5.49 ± 0.21
DSTGYMEVSLDSLDLRVKGILSSQ [EHMT1]	3.08 ± 0.36	3.17 ± 0.29
DTDAEGDDFELLDQSELSQLDPAS [RETREG3]	5.61 ± 0.065	5.57 ± 0.16
DTETFTWSQPITTGKAPSPRAAHA [KLHDC2]	4.31 ± 0.082	4.41 ± 0.51
DTFQKELMCFDPDTDKWIQKAPMT [KLHL13]	4.16 ± 0.28	3.87 ± 0.15
DTMLEEVENKEKDSNMPHFQTLQA [CEP70]	4.94 ± 0.22	4.93 ± 0.15
DVKAMGPLVLTEVLFNEKIREQIK [EIF5]	2.39 ± 0.11	2.28 ± 0.34
DVKCYQGTDIVRGCDPLVKPVGRQ [ADAMTSL2]	3.68 ± 0.3	3.88 ± 0.27
DVTAKNIWLAESVLDILTEQREWV [INTS3]	2.3 ± 0.24	2.65 ± 0.33
DYVQLENQWETPPEDLQTDLAKLV [ZNF449]	4.19 ± 0.3	4.31 ± 0.059
EAGYYFFNGNYKVDSPKNFNIAGT [ADAMTSL2]	2.34 ± 0.35	2.44 ± 0.31
EAQERELRKREKAEEKERRRKEYD [LRRC59]	5.4 ± 0.18	5.49 ± 0.3
EASNFQMDRKTRFIIHGFIDKGDE [PNLIPRP1]	3.26 ± 0.21	3.27 ± 0.27
EAVPARGEPQQDCCVKTELLGEET [EHMT1]	5.52 ± 0.27	5.65 ± 0.26
ECEKSALTPGFSDNAIMLFSPDFT [FAN1]	3.49 ± 0.19	3.79 ± 0.26
ECSNIPLSQPQQGEAMLANFKPRG [GAN]	3.5 ± 0.9	3.97 ± 0.34
EDEGFVREEEDRALPENEFKKQIW [KCNA4]	5.18 ± 0.17	5.19 ± 0.2
EDESQSEEENDYRNLDASPTYKGL [CEP70]	5.27 ± 0.23	5.41 ± 0.15
